Data from patent US20240216518A1 (HARPOON THERAPEUTICS, published 2024).

Experiments:
[1] = target: T1, FLT3 TriTAC; assay: biolayer interferometry
T1 construct: Single-chain trispecific; also called constitutively active FLT3 TriTAC

[2] = target: T2, stub:Active control; αCD19 T:A:C stub:Active; assay: ELISA on recombinant human CD3ε
T2 construct: Single-chain trispecific; also called TriTAC-XR active drug; constitutively active CD19 TriTAC
T2 sequence (chain, as listed by the source): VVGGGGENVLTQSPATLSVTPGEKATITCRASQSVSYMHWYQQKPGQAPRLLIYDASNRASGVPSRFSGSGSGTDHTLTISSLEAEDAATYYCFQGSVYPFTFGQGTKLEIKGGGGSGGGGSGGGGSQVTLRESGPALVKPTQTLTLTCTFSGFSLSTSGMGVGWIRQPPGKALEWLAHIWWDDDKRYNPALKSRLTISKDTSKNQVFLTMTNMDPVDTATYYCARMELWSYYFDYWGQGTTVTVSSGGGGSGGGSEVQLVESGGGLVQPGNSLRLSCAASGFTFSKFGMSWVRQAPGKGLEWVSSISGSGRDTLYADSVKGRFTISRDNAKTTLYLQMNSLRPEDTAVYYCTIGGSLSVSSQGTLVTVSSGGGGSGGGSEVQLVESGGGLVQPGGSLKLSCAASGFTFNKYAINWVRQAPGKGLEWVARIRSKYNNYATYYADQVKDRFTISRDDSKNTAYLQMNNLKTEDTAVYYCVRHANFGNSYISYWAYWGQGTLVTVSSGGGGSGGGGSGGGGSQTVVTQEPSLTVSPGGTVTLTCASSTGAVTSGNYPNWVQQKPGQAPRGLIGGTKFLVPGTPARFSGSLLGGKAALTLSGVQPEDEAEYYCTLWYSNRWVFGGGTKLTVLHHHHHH

T1 sequence (chain, as listed by the source): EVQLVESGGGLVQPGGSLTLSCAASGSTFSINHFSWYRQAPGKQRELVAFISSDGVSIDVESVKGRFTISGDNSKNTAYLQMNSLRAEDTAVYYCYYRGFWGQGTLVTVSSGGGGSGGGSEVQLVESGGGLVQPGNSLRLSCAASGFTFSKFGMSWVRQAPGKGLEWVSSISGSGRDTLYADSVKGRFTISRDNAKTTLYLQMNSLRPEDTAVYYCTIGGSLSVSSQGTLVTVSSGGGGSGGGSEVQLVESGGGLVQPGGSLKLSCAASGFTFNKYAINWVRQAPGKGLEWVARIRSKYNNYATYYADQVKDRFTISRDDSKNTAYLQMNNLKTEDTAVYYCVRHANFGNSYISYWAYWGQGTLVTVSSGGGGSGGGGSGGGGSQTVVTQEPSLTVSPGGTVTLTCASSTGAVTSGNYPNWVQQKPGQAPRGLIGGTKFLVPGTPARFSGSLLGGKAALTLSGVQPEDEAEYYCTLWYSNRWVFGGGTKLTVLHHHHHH

Binder	Kd [1] [nM]	binding result [2]
cynomolgus CD3 (receptor) QDGNEEMGSITQTPYQVSISGTTVILTCSQHLGSEAQWQHNGKNKEDSGDRLFLPEFSEMEQSGYYVCYPRGSNPEDASHHLYLKARVCENCMEMD	3.3	
recombinant human CD3ε (receptor, UniProt P07766 23-126, looked up) DGNEEMGGITQTPYKVSISGTTVILTCPQYPGSEILWQHNDKNIGGDEDDKNIGSDEDHLSLKEFSELEQSGYYVCYPRGSKPEDANFYLYLRARVCENCMEMD		binds

The next lines start with the values.

Kd [1] [nM]	binding result [2]	Binder
2.7		cynomolgus FLT3 (receptor) NQDLPVIKCVLINHKNNDSSVGKSSSYPMVSESPEDLGCALRPQSAGTVYEAATVEVDVSASITLQVLVDTPGNISCLWVFKHSSLNCQPHFDVQNRGVVSMVILKMTETQAGEYLLFIQSEATNYTIVFTVSIRNTLLFTLRRPYFRKMENQDALVCISESVPEPIVEWVLCDSQGESCKEESPAVVKKEEKVLHELFGTDIRCCARNELGRECTRLFTIDLNQTPQTTLPQLFLKVGEPLWIRCKAVHVNHGFGLTWELENKALEEGSYFEMSTYSTNRTMIRILFAFVSSVARNDTGYYTCSSSKHPSQSALVTIVEKGFINATNSSEDYEIDQYEEFCFSVRFKAYPQIRCTWTFSRKAFPCEQKALDDGYSVSKFCNHKHQPGEYIFHAENGDAQFTKMFTLNIRRKPQVLAEASASQASCSSDGYPLPSWTWKKCSDKSPNCTEDIPEGVWNRKANRKVFGQWVSSSTLNMSEAMKGFLVKCCAYNSLGTSCETILLNSPGPFPFIQDS
4.4		cynomolgus albumin (other, UniProt A2V9Z4 25-608, looked up, also called cynomolgus serum albumin) DTHKSEVAHRFKDLGEEHFKGLVLVAFSQYLQQCPFEEHVKLVNEVTEFAKTCVADESAENCDKSLHTLFGDKLCTVATLRETYGEMADCCAKQEPERNECFLQHKDDNPNLPPLVRPEVDVMCTAFHDNEATFLKKYLYEVARRHPYFYAPELLFFAARYKAAFAECCQAADKAACLLPKLDELRDEGKASSAKQRLKCASLQKFGDRAFKAWAVARLSQKFPKAEFAEVSKLVTDLTKVHTECCHGDLLECADDRADLAKYMCENQDSISSKLKECCDKPLLEKSHCLAEVENDEMPADLPSLAADYVESKDVCKNYAEAKDVFLGMFLYEYARRHPDYSVMLLLRLAKAYEATLEKCCAAADPHECYAKVFDEFQPLVEEPQNLVKQNCELFEQLGEYKFQNALLVRYTKKVPQVSTPTLVEVSRNLGKVGAKCCKLPEAKRMPCAEDYLSVVLNRLCVLHEKTPVSEKVTKCCTESLVNRRPCFSALELDEAYVPKAFNAETFTFHADMCTLSEKEKQVKKQTALVELVKHKPKATKEQLKGVMDNFAAFVEKCCKADDKEACFAEEGPKFVAASQAALA
